The values that follow come from the supplement of paper PMC12042874.

± gives the uncertainty stated by the source.

The data set is described as follows: amyloid nucleation score (Sup35N fusion, yeast selection) (log enrichment); library NNK1; higher = more nucleation; inactive = no reads after selection. The procedure, abridged:
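Nucleation score is defined as the DiMSum log enrichment of output over input reads, with centring on the mode score of non-aggregating sequences. A minimum of 100 input reads was required for each sequence. Reads came from Illumina sequencing of plasmid inserts from psi-negative yeast expressing Sup35N fused to peptides of 20 random codons, induced with 100 μM copper sulfate for 24 hours and grown 7 days at 30°C on medium lacking adenine and uracil.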
As to TFIVQPFLTENPIASRFESA, the amyloid nucleation score was determined as 0.063 ± 0.38. The value for TFPGDGRFPKVSKVYDPVLE was “inactive”; that for TFQCCLDVCASVC was 0.273 ± 0.46. Substance TFQHCLRYWPNHSRLNSCRL returned an amyloid nucleation score of 0.155 ± 0.25. The value for TFRGNRIINQNWGYHCMWWC was 5.733 ± 0.056; that for TFSDFIQKGWRFIFKYPFRC was 0.686 ± 0.35.

Turning to TFSFTAYNPCFDSFSTVGLS, the amyloid nucleation score was -0.147 ± 0.45. The value for TFSTGRACLNEVRNVGMFKM was 0.75 ± 0.54; that for TFSYILDWFEVSLTHRGALI was 0.192 ± 0.41. Under TFTPWKVDVLSRYRMQGCAQ stands 0.556 ± 0.47. The value for TFWYLLNCVSRLFNF was -0.013 ± 0.57; that for TFYLFSRGSSLEIWG was 5.72 ± 0.059. With TFYNFAMSFKEVCCCMSWRG, the amyloid nucleation score was determined as 7.143 ± 0.058. The value for TFYSCHP was 1.49 ± 0.37.

The substance TGCLVTWNIENLLRHQTFAM showed an amyloid nucleation score of 0.227 ± 0.38.

Take TGFLR: the amyloid nucleation score turned out to be 0.12 ± 0.4.

As to TGIYYWNRKLGRYRLHVHVV, the amyloid nucleation score was -0.15 ± 0.97. The value for TGPDSISAYQHLFNCS was 1.64 ± 0.54; that for TGRMGLTNRSEEFLSFLADS was -1.45 ± 0.89; that for TGSLWRLRTSACWVLNHRKS was -1.09 ± 1. Under TGWNGNLGSVVAE stands -0.375 ± 0.5; under TGYRFLSIIIAAADSDCELS, -0.706 ± 1.2. The value for TGYVVVMVYCWSCLGGQSVA was 0.119 ± 0.89. As to THCCSRYTPERVC, the amyloid nucleation score came out at 0.47 ± 0.4.

As for THCLDCVPMNRVDNRCETFS, the amyloid nucleation score stood at 0.028 ± 0.36. The value for THLVAPRSWLFIGPCRTKAS was 0.385 ± 0.89. Under THQARVLNNVRALRSTFALL stands 2.5 ± 0.12; under THSRFSYGVVNR, 0.683 ± 1; under THYNAGSCKMLNQAPFHRIS, -0.352 ± 0.33. For the substance TICVYSG, the amyloid nucleation score came to 0.008 ± 0.49. On to TIGASKFMICWTDSFHLQSQ, for which the amyloid nucleation score came to 3 ± 0.12. TIGFTHYCCSFKS displayed an amyloid nucleation score of -1.23 ± 0.52. Under TIKEGSLITTDAKYLMGMMK stands 2.03 ± 0.19; under TIKMDTQVLVYIRKRNKYCW, -0.746 ± 0.79.

TILVNKRR returned an amyloid nucleation score of -1.28 ± 0.65. Take TILYVVARYF: the amyloid nucleation score was -0.004 ± 0.35. Under TIMVVWCSGKDGSQVTWMQF stands 0.324 ± 0.34. The value for TIRNMMMYYGSSKVSYRMNS was 0.587 ± 0.22; that for TISLL was 0.13 ± 0.43; that for TISLLTHVFLDVLWCGR was -0.779 ± 0.61. For the substance TIVLLNCISIRLSIRFMFIP, the amyloid nucleation score is -0.251 ± 1. Under TIVSGTRSYNLHRSILLLHL stands 1.5 ± 0.23; under TIWFAF, -0.128 ± 0.64. Under TKLAY stands 0.445 ± 0.49; under TKLKNWGLNLGMASGNQSDR, -0.725 ± 0.45; under TLAGRCINDCILEGDMSRCF, 2.18 ± 0.57. Under TLCPLDFHRDTARELCPRGV stands 0.049 ± 0.4.

TLCQFSSARACYAWVVFPTY showed an amyloid nucleation score of 1.19 ± 0.21. Substance TLDKDLDMGRP registered an amyloid nucleation score of 0.625 ± 0.56. The value for TLFLKDLSLLAFEFPLNISA was -0.507 ± 0.37; that for TLGTSGTSSV was -0.544 ± 0.49. For the substance TLHKFCLSGVHSFVGVTNST, the amyloid nucleation score came to 0.06 ± 0.46. Under TLIIGYRA stands 0.964 ± 0.51; under TLLIMLLYKSTILCVQPDLM, 0.032 ± 0.6; under TLLSNWVEMNPLYFMLDLPY, 0.225 ± 0.48. TLNGFPLSISTANCEVRYDK came in with an amyloid nucleation score of 0.005 ± 0.9. Consider TLNKARSDYFLKRSSE, for which the amyloid nucleation score is -0.025 ± 1. Under TLRHALLRQTLSNLRQDGV stands -0.009 ± 0.3; under TLSGVYTFCMFLVWVDSASG, 0.843 ± 0.62; under TLVQCVSWISGSDKSHRMTI, -1.52 ± 2.7.

In the case of TLVVGMRLDNHDHA, the amyloid nucleation score came to 1.14 ± 0.21. The value for TMAFVKLLNGSGNLEILKFS was 0.785 ± 0.44; that for TMIGILWCSYINVALYSGGL was 1.22 ± 0.28; that for TMLLDAYHEFKWANTNLFWL was -0.263 ± 0.93. TMSSSNQSQMFPSVIYSEGH returned an amyloid nucleation score of -0.209 ± 0.9. Consider TNLLSLMMFDSKCIISEGIM, for which the amyloid nucleation score was -0.567 ± 1.7. The value for TNNSWCFFLRLGYT was 5.05 ± 0.076; that for TNPYSWNLYCGFLNTDWVV was 0.787 ± 0.85; that for TNRVTGSLWDEVWSDPGPEC was -1.28 ± 0.8.

TNSFSSSLRMV returned an amyloid nucleation score of 0.076 ± 0.88. As for TNWAVKGWAVECRRHSGPNT, the amyloid nucleation score was found to be 1.45 ± 0.79.

Regarding TNWVWELL, the amyloid nucleation score is -0.544 ± 1.9. Under TNYQRIQHA stands -0.903 ± 2.4; under TPSIYRNVCDIEGLLSSRYL, 0.36 ± 0.54; under TPTTLKDYYPRAGNINRMTY, -0.15 ± 0.28. As for TPYLDFI, the amyloid nucleation score is 1.12 ± 0.56.

Regarding TQKHCY, the amyloid nucleation score stood at 0.326 ± 0.33.

Substance TQVWKPLHKTSLHYSDREVS showed an amyloid nucleation score of -0.111 ± 0.38. The value for TRFNTSEDHSLDNIEA was -0.542 ± 0.93; that for TRFVVVVMIISQLRCLLCDM was 0.61 ± 1; that for TRISFRKGV was -0.54 ± 0.5. TRKPEPINPQSIWSTVLQHE had an amyloid nucleation score of 0.54 ± 0.48.

On to TRLSRERINRDWEREGCLTP, for which the amyloid nucleation score came out at 0.798 ± 0.81. The substance TRLVVLRSW returned an amyloid nucleation score of 1.14 ± 0.98. Under TRNSDASGNCCVTGRDV stands -0.849 ± 0.45. Under TRNVMFINVALHFSNLVGWC stands 4.21 ± 0.12. As for TRRFR, the amyloid nucleation score was -0.181 ± 0.41. The value for TRSDQPTILTSLYLERNYSP was -0.321 ± 0.56; that for TRSKMALGVQYHGLMQLYCR was 0.121 ± 0.31. TRSVWIEDRVTRAARFKGQR came in with an amyloid nucleation score of -0.116 ± 0.47. The value for TRTGSRHPWRCLSDIASCNG was 0.466 ± 0.32; that for TRYLRIWSPSQMICMWGRFL was 0.145 ± 0.5; that for TSCPRYECNENTSVYGSLDT was “inactive”. The value for TSEQYESLCWVSSLRRIFQK was 0.043 ± 0.48; that for TSFGYLLVSRNWCNSWCIMS was 3.01 ± 0.079; that for TSFLWLLTFERFD was “inactive”. TSGSCSACCLWVRGDNETFM had an amyloid nucleation score of 7.881 ± 0.048.

TSHSETSEAFRRFSAPFLAN showed an amyloid nucleation score of 0.497 ± 0.64. As for TSIFDEMSHVEEVRRTMIRG, the amyloid nucleation score turned out to be 0.209 ± 0.35. Under TSREGRGSLSVWSG stands -0.19 ± 0.81; under TSSAFVCVENTLWTEVVEPM, 0.411 ± 0.55; under TSSCFMESRLK, 0.179 ± 0.59.

In the case of TSTSIGRVQCLYDSWRRTAW, the amyloid nucleation score was determined as 0.73 ± 0.62. Under TSVVVRSPRGVVEPKHYFCI stands -1.19 ± 2.4; under TSYNIMFQ, -0.584 ± 1.2.

TTEFIGES came in with an amyloid nucleation score of 1.25 ± 0.73.

Take TTHLSHIYLLDASYNYKDSR: the amyloid nucleation score was 0.27 ± 0.36. The value for TTLIILDTYLNMIVVGTLYW was 0.11 ± 0.22; that for TTPIEAV was -0.178 ± 1.2; that for TTWRMIFVVKRLHWFGLK was -0.445 ± 0.46. Under TVDKTYFFYIVDCNVDKPGD stands 1.08 ± 0.59; under TVLGQH, -0.058 ± 0.29; under TVLGTSQGSCGWSNPSRNAR, -0.455 ± 1.7. Under TVMVGLKVCAHQLDSM stands 1.28 ± 0.4. TVNGLPN registered an amyloid nucleation score of 0.885 ± 0.92. Under TVNSWRNLMSDLSWFSAVIL stands -0.657 ± 0.39; under TVRRVGISWNWYIKTLYGSD, -1.12 ± 0.88. Under TVRSYRSGRCYNFIVNRERA stands -0.177 ± 0.75; under TVSVANSKWSDTVINMRLDR, 5.72 ± 0.065.

As to TVTYLLCYYDSALYRCATGL, the amyloid nucleation score amounted to 5.553 ± 0.052.

In the case of TVWSHCIEFFGHLRKLRSLL, the amyloid nucleation score was 1.84 ± 0.5. The value for TVYIG was 0.258 ± 0.3; that for TWIFVSLACKAL was -0.045 ± 0.4; that for TWNRRVRVYTGYCPNVGMSL was 4.94 ± 0.059. In the case of TWYLMMENVS, the amyloid nucleation score stood at 4.69 ± 0.056. The value for TYCNQWIGCMGYRKKHEPR was -0.077 ± 0.41; that for TYDVMTLGENVKGLCISARC was -0.412 ± 0.42. As to TYGKIMVN, the amyloid nucleation score is -0.418 ± 1.5.

As for TYLIKMSVT, the amyloid nucleation score came out at 0.313 ± 0.39. Under TYLQRCSIFRPSLTSMG stands 0.273 ± 0.45; under TYQRRL, -0.414 ± 1.1; under TYRLIRSFC, 0.368 ± 0.4. Turning to VAEAFTIGWGGNESSSVRSS, the amyloid nucleation score was -0.348 ± 0.52.

Take VAFWLLC: the amyloid nucleation score was determined as 0.219 ± 0.38. The value for VAGAVNNSWWGLSNVARAKR was 0.082 ± 0.54; that for VAKAPSNSCTLCHDWYGRST was 0.101 ± 1.4. Under VALDIGFSWALSRLWLKRHF stands 0.095 ± 0.29. The value for VALIRGRD was 0.292 ± 0.32. VAMLQFASFQSSW displayed an amyloid nucleation score of -0.323 ± 0.39. The value for VANTCWQMMFLRMLSYFLRV was 0.687 ± 0.44; that for VARFCNGYTHNIAMCTGIQR was -2.44 ± 2.4.
